Data from patent US20220332848A1.

Legend:
CD47 = CD47 (UniProt Q08722); experiment: FACS binding CHO-K1 cells expressing CD47
human CTLA-4 (human) = human CTLA-4 (human) (UniProt P16410); experiment: FACS binding CHO-K1 cells expressing human CTLA-4
human CTLA-4 (human), sequence (P16410 36-223): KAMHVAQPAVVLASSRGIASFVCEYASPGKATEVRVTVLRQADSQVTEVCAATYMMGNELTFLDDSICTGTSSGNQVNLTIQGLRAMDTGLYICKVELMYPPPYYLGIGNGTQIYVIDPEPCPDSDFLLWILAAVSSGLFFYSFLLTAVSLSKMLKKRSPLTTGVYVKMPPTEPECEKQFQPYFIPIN

CD47, sequence (Q08722 19-323): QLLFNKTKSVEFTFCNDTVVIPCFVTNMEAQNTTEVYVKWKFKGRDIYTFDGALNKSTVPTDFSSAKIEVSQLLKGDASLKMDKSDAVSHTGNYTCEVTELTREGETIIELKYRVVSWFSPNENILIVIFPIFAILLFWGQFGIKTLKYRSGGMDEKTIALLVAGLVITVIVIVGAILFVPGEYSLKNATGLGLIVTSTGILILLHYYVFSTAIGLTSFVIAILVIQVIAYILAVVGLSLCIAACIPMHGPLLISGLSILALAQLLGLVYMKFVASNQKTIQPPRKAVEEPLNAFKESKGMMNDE

EC50 (CD47): 0.00385 µM
EC50 (human CTLA-4 (human)): 0.0421 µM
Substance: human IgG
